# Source: patent US20230106715A1 (BIOSION, published 2023)
# Numbering of substitutions follows the chain as printed.
# T1: recombinant human Siglec15-his protein (human, UniProt Q6ZMC9 20-263)
# T1 construct: In house made; Biotin-labeled in the capture ELISA
# T1 sequence: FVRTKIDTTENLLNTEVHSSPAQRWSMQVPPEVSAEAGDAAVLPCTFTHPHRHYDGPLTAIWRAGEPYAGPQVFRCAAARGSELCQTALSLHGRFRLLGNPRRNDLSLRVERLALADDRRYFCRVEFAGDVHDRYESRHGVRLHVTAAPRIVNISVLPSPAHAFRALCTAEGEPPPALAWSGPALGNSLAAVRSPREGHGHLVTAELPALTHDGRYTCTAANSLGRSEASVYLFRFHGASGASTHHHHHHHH
# B1: anti-Siglec15 benchmark (ch5G12) (antibody, human IgG1, kappa, V domains shown)
# VH: QVQLQQPGAELVKPGASVKMSCKASGYTFTSYWITWVIQRPGQGLEWIGDIYCGSDTMHYNEKFKNKATLTVDTSSSTAYMQLSSLTSEDSAVYYCARWWDYGSSYDYFDYWGQGTTLTVSS
# VL: DIKMTQSPSSMYASLGERVTITCKASQDINSYLSWFQQKPGKSPKTLIYRANRLVDGVPSRFSGSGSGQDYSLTISSLEYEDMGIYYCLQYDEFPYTFGGGTKLEIKR
# notes: ch5G12 (US 20190202912A1); also called BM; Siglec15-ch5G9
# B2: A2A5C7E8 (antibody, V domains shown)
# VH: EVQLVQSGAEVKKPGESLRISCKGSGYSFTTYWISWVRQMPGKGLEWMGLIDPSDSYTNYSPSFQGHVTISTDKSISTAYLQWSSLKASDTAMYYCARGGYYGSEEDYWGQGTLVTVSS
# VL: EIVLTQSPGTLSLSPGERATLSCRASQSVSSSRLAWFQQKSGQAPRLLIFDASSRATGIPDRFSGSGSGTDFTLTISRLEPEDFAVYYCQQYGSSPRTFGQGTKVEFK
# notes: Fully human antibody from transgenic mouse hybridoma; also called A2A5C7E8-1
# B3: A1E10G7H9 (antibody, V domains shown)
# VH: QVQLQESGPGLVKPSGTLSLTCAVSGGSISSSNWWHWVRQPPGKGLEWIGEIYHSGNTNYKPSLKSRVTISVDKSKNQFSLKLSSVTAADTAVYYCARDEGNGWSNAFDIWGQGTMVTVSS
# VL: ENVLTQSPGTLSLSPGERVTLSCRASQSVSSSYLAWYQQKPGQAPRFLIYGASGGATGIPDRFSGSGSGTDFTLTISRLEPEDFAVYYCQQYGSSPITFGQGTRLEIK
# notes: Fully human antibody from transgenic mouse hybridoma
# B4: A2A5C7E8-2 (antibody, human IgG1, kappa, V domains shown)
# VH: B2 VH with D55E
# VL: EIVLTQSPGTLSLSPGERATLSCRASQSVSSSRLAWFQQKSGQAPRLLIFDASSRATGIPDRFSGSGSGTDFTLTISRLEPEDFAVYYCQQYGSSPRTFGQGTKVEFKR
# notes: Variant of A2A5C7E8 modified in VH CDR2 (X1 = E)
# B5: A2A5C7E8-3 (antibody, human IgG1, kappa, V domains shown)
# VH: B2 VH with Q65K
# VL: B4 VL
# notes: Variant of A2A5C7E8 modified in VH CDR2 (X2 = K)
# Molecular target: T2, human Siglec15-Fc protein (human)
# T2 construct: In house made; also called recombinant human Siglec15 protein with human IgG1 Fc at the C-terminus
# Assay: competitive ELISA: biotin-labeled human Siglec15-Fc in solution, competitor coated benchmark
# Description: The abilities of the anti-Siglec15 antibodies of the disclosure to block benchmark-human Siglec15 binding were measured in a competitive ELISA assay. Briefly, the benchmark was coated on 96-well micro plates at 2 μg/mL in PBS, 100 μl per well, and incubated for 2 hours at 37° C. Then plates were washed once with wash buffer, and blocked with 5% w/v non-fatty milk in PBST overnight at 4° C. The next day, the anti-Siglec15 antibodies of the disclosure or controls were diluted with biotin labeled human Siglec15-Fc protein (prepared in-house with SEQ ID NO: 19, 37 ng/ml in PBST with 2.5% w/v non-fatty milk), starting at 80 nM with a 4-fold serial dilution, and incubated at room temperature for 40 minutes. After plate washing 4 times, the antibody/Siglec15-Fc mixtures were added to benchmark coated plates, 100 μl per well. After incubation at 37° C. for 40 minutes, plates were washed 4 times again using wash buffer. Then the plates were added and incubated with 100 μl/well streptavidin conjugated HRP for 40 minutes at 37° C. […] Finally, TMB was added and the reaction was stopped using 1M H₂SO₄, and the absorbance of each well was read on a microplate reader using dual wavelength mode with 450 nm for TMB and 630 nm as the reference wavelength, then the OD (450-630) values were plotted against antibody concentration. Data was analyzed using Graphpad Prism software and IC₅₀ values were reported.
row,IC50,Binder
1,0.253 nM,B1
2,0.0836 nM,B2

# Molecular target: T2, human Siglec15-Fc protein
# Assay: competitive ELISA: coated human Siglec15-Fc, blocked ligand biotin-labeled human LRRC4C-Fc
# Description: Serially diluted anti-Siglec15 antibodies or the controls (starting at 66.67 nM with a 5-fold serial dilution) in PBST with 2.5% w/v non-fatty milk were added to the Siglec15-Fc bound plates, 100 μl per well, and incubated with the human Siglec15-Fc protein at 37° C. for 40 minutes. Plates were washed 4 times again using wash buffer, then added and incubated for 40 minutes at 37° C. with 100 μl/well 290 ng/ml biotin-labeled human LRRC4C-Fc protein (prepared in-house with SEQ ID NO: 23). Plates were washed again using wash buffer. Thereafter, the plates were added with 100 μl/well streptavidin conjugated HRP (1:5000 dilution in PBST buffer, Jackson Immunoresearch, Cat #016-030-084) and incubated for 40 minutes at 37° C. Plates were washed again using wash buffer. Finally, TMB was added and the reaction was stopped using 1M H₂SO₄, and the absorbance of each well was read on a microplate reader using dual wavelength mode with 450 nm for TMB and 630 nm as the reference wavelength, then the OD (450-630) values were plotted against antibody concentration. Data was analyzed using Graphpad Prism software and IC₅₀ values were reported.
row,IC50,Binder
1,1.24 nM,B3
2,0.751 nM,B1
3,0.84 nM,B2

# Molecular target: T1, recombinant human Siglec15-his protein
# Assay: capture ELISA, captured antibody, biotin-labeled human Siglec15-his in solution
# Description: Briefly, 96-well plates were coated with 100 μl of 2 μg/ml AffiniPure Goat Anti-Human IgG F(ab′)₂ fragment specific (Jackson Immuno Research, Cat #109-005-097) in PBS for 2 hours at 37° C. Plates were washed once with wash buffer (PBS+0.05% v/v Tween-20, PBST) and then blocked with 200 μl blocking buffer (5% w/v non-fatty milk in PBST) overnight at 4° C. Plates were washed 4 times and respectively incubated with 100 μl serially diluted anti-Siglec15 antibodies of the disclosure, the benchmark and hIgG (human immunoglobulin (pH4) for intravenous injection, Hualan Biological Engineering Inc.), 5-fold dilution in 2.5% w/v non-fatty milk in PBST starting at 66.7 nM, for 40 minutes at 37° C., and then washed 4 times again. Plates containing captured antibodies were incubated with 100 μl biotin-labeled human Siglec15-his protein (in house made with SEQ ID NO: 20, 145 ng/ml in 2.5% w/v non-fatty milk in PBST) for 40 minutes at 37° C., washed 4 times, and incubated with streptavidin conjugated HRP (1:10000 dilution in PBST, Jackson Immuno Research, Cat #016-030-084, 100 μl/well) for 40 minutes at 37° C. After a final wash, plates were incubated with 100 μl/well ELISA substrate TMB (Innoreagents, Cat #TMB-S-002). The reaction was stopped in 4 minutes at room temperature with 50 μl/well 1M H₂SO₄, and the absorbance of each well was read on a microplate reader using dual wavelength mode with 450 nm for TMB and 630 nm as the reference wavelength, then the OD (450-630) values were plotted against antibody concentration. Data was analyzed using Graphpad Prism software and EC₅₀ values were reported.
row,EC50,Binder
1,1.79 nM,B1
2,0.0848 nM,B2
3,0.502 nM,B4
4,0.0902 nM,B5
